# Results: patent US20130143299A1
# Target: human Erk2 (extracellular signal-regulated kinase 2), purchased from Sigma (human), P28482
# Test: ELISA, purified clone 500 ng/well on immobilised antigen, anti-FLAG-HRP detection
# Sequence of human Erk2 (extracellular signal-regulated kinase 2), purchased from Sigma (human), P28482 (P28482 whole entry): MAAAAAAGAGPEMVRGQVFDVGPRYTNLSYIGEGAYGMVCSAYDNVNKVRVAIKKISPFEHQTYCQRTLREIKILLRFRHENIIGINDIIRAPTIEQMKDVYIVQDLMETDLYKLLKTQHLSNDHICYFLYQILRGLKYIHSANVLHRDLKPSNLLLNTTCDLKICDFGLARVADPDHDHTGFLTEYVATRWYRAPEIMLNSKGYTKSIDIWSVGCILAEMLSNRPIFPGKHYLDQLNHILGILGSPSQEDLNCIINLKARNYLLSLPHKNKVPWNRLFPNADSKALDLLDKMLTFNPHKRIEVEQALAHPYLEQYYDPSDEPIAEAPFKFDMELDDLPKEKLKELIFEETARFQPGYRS
binder,measurement,value
"Erk2-binding clone group J (RNF8-FHA domain-modified protein) (designed binder, not shown: large carriers, not fully specified; X: residue not identified in the source; also: N-terminal MBP-Strep/FLAG fusion partner, sequence not given here) GEPGFFVTGDRAGGRSWCLRRVGMSAGWLLLEDGCEVTVGFGTGVTYQLVSKYLPSWFTYNHCVLKQNPEGQWTIMDNKSLTGVWLNRARLEPLRVYSIHQGDYIQLGSLREXSENAEYEYEVTEEDWETIYPCLSPKNDQMIEKN",ELISA (S/N),25.6 S/N
